We go through one molecule from article PMC6386614.

The data set has as its target T1, hnRNP H1-His6 (UniProt P31943 1-449).
T1 sequence: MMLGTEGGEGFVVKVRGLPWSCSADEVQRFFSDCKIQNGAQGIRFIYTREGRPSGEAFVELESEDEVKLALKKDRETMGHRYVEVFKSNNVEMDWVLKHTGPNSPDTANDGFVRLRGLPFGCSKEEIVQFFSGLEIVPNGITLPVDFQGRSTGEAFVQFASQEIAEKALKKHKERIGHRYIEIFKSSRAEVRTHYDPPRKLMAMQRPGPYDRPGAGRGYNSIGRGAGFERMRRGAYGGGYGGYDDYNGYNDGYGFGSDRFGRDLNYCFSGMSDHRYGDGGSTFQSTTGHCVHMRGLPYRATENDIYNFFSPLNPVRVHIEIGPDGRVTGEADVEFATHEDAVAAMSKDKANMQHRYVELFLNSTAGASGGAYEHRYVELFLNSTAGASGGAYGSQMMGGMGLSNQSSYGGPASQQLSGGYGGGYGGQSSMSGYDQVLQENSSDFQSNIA
Put plainly: EMSA.

In turn, GGGGCCGGGGCCGGGGCCGGGGCCGGGGCCGGGGCCGGGGCCGGGGCC (structured_RNA) [r(G4C2)8 (32P)] displayed an equilibrium dissociation constant (Kd) of 65 ± 26 nM.

The term Kd denotes the free concentration of one partner at which half of the binding sites on the other are occupied at equilibrium, for simple one-to-one binding.
